From the Human Domainome abundance scans (Beltran et al. 2025)
± gives the uncertainty stated by the source.

B1: Steroid hormone receptor ERR2, residues 100 to 176; numbered along this chain, O95718 (parent)
chain: KRLCLVCGDIASGYHYGVASCEACKAFFKRTIQGNIEYSCPATNECEITKRRRKSCQACRFMKCLKVGMLKEGVRLD

Variants of: B1
Experiment: abundance fitness (aPCA) (normalised: wild type 0, dead -1); higher = more abundant; growth selection in yeast, the domain comes from the species named
Conditions: Homo sapiens

| Variant | abundance fitness |
| --- | --- |
| KRLCLVCGDIASGYHYSVASCEACKAFFKRTIQGNIEYSCPATNECEITKRRRKSCQACRFMKCLKVGMLKEGVRLD [G17S] | -0.266 ± 0.056 |
| KRLCLVCGDIASGYHYTVASCEACKAFFKRTIQGNIEYSCPATNECEITKRRRKSCQACRFMKCLKVGMLKEGVRLD [G17T] | -0.337 ± 0.078 |
| KRLCLVCGDIASGYHYVVASCEACKAFFKRTIQGNIEYSCPATNECEITKRRRKSCQACRFMKCLKVGMLKEGVRLD [G17V] | -0.413 ± 0.055 |
| KRLCLVCGDIASGYHYWVASCEACKAFFKRTIQGNIEYSCPATNECEITKRRRKSCQACRFMKCLKVGMLKEGVRLD [G17W] | -0.359 ± 0.075 |
| KRLCLVCGDIASGYHYGAASCEACKAFFKRTIQGNIEYSCPATNECEITKRRRKSCQACRFMKCLKVGMLKEGVRLD [V18A] | -0.26 ± 0.072 |
| KRLCLVCGDIASGYHYGCASCEACKAFFKRTIQGNIEYSCPATNECEITKRRRKSCQACRFMKCLKVGMLKEGVRLD [V18C] | -0.169 ± 0.076 |
| KRLCLVCGDIASGYHYGDASCEACKAFFKRTIQGNIEYSCPATNECEITKRRRKSCQACRFMKCLKVGMLKEGVRLD [V18D] | -0.471 ± 0.18 |
| KRLCLVCGDIASGYHYGEASCEACKAFFKRTIQGNIEYSCPATNECEITKRRRKSCQACRFMKCLKVGMLKEGVRLD [V18E] | -0.399 ± 0.14 |
| KRLCLVCGDIASGYHYGFASCEACKAFFKRTIQGNIEYSCPATNECEITKRRRKSCQACRFMKCLKVGMLKEGVRLD [V18F] | -0.428 ± 0.089 |
| KRLCLVCGDIASGYHYGGASCEACKAFFKRTIQGNIEYSCPATNECEITKRRRKSCQACRFMKCLKVGMLKEGVRLD [V18G] | -0.259 ± 0.066 |
| KRLCLVCGDIASGYHYGHASCEACKAFFKRTIQGNIEYSCPATNECEITKRRRKSCQACRFMKCLKVGMLKEGVRLD [V18H] | -0.245 ± 0.1 |
| KRLCLVCGDIASGYHYGLASCEACKAFFKRTIQGNIEYSCPATNECEITKRRRKSCQACRFMKCLKVGMLKEGVRLD [V18L] | -0.613 ± 0.071 |
| KRLCLVCGDIASGYHYGMASCEACKAFFKRTIQGNIEYSCPATNECEITKRRRKSCQACRFMKCLKVGMLKEGVRLD [V18M] | 0.218 ± 0.42 |
| KRLCLVCGDIASGYHYGPASCEACKAFFKRTIQGNIEYSCPATNECEITKRRRKSCQACRFMKCLKVGMLKEGVRLD [V18P] | -0.331 ± 0.078 |
| KRLCLVCGDIASGYHYGQASCEACKAFFKRTIQGNIEYSCPATNECEITKRRRKSCQACRFMKCLKVGMLKEGVRLD [V18Q] | -0.375 ± 0.089 |
| KRLCLVCGDIASGYHYGRASCEACKAFFKRTIQGNIEYSCPATNECEITKRRRKSCQACRFMKCLKVGMLKEGVRLD [V18R] | -0.384 ± 0.07 |
| KRLCLVCGDIASGYHYGWASCEACKAFFKRTIQGNIEYSCPATNECEITKRRRKSCQACRFMKCLKVGMLKEGVRLD [V18W] | -0.657 ± 0.094 |
| KRLCLVCGDIASGYHYGYASCEACKAFFKRTIQGNIEYSCPATNECEITKRRRKSCQACRFMKCLKVGMLKEGVRLD [V18Y] | -0.663 ± 0.14 |

| Variant | abundance fitness |
| --- | --- |
| KRLCLVCGDIASGYHYGVCSCEACKAFFKRTIQGNIEYSCPATNECEITKRRRKSCQACRFMKCLKVGMLKEGVRLD [A19C] | -0.41 ± 0.1 |
| KRLCLVCGDIASGYHYGVDSCEACKAFFKRTIQGNIEYSCPATNECEITKRRRKSCQACRFMKCLKVGMLKEGVRLD [A19D] | 0.046 ± 0.067 |
| KRLCLVCGDIASGYHYGVESCEACKAFFKRTIQGNIEYSCPATNECEITKRRRKSCQACRFMKCLKVGMLKEGVRLD [A19E] | 0.043 ± 0.05 |
| KRLCLVCGDIASGYHYGVFSCEACKAFFKRTIQGNIEYSCPATNECEITKRRRKSCQACRFMKCLKVGMLKEGVRLD [A19F] | -0.326 ± 0.14 |
| KRLCLVCGDIASGYHYGVISCEACKAFFKRTIQGNIEYSCPATNECEITKRRRKSCQACRFMKCLKVGMLKEGVRLD [A19I] | -0.464 ± 0.14 |
| KRLCLVCGDIASGYHYGVKSCEACKAFFKRTIQGNIEYSCPATNECEITKRRRKSCQACRFMKCLKVGMLKEGVRLD [A19K] | -0.135 ± 0.055 |
| KRLCLVCGDIASGYHYGVLSCEACKAFFKRTIQGNIEYSCPATNECEITKRRRKSCQACRFMKCLKVGMLKEGVRLD [A19L] | -0.046 ± 0.041 |
| KRLCLVCGDIASGYHYGVMSCEACKAFFKRTIQGNIEYSCPATNECEITKRRRKSCQACRFMKCLKVGMLKEGVRLD [A19M] | -0.117 ± 0.055 |
| KRLCLVCGDIASGYHYGVNSCEACKAFFKRTIQGNIEYSCPATNECEITKRRRKSCQACRFMKCLKVGMLKEGVRLD [A19N] | 0.005 ± 0.085 |
| KRLCLVCGDIASGYHYGVPSCEACKAFFKRTIQGNIEYSCPATNECEITKRRRKSCQACRFMKCLKVGMLKEGVRLD [A19P] | -0.065 ± 0.074 |
| KRLCLVCGDIASGYHYGVQSCEACKAFFKRTIQGNIEYSCPATNECEITKRRRKSCQACRFMKCLKVGMLKEGVRLD [A19Q] | -0.113 ± 0.057 |
| KRLCLVCGDIASGYHYGVRSCEACKAFFKRTIQGNIEYSCPATNECEITKRRRKSCQACRFMKCLKVGMLKEGVRLD [A19R] | -0.331 ± 0.041 |
| KRLCLVCGDIASGYHYGVSSCEACKAFFKRTIQGNIEYSCPATNECEITKRRRKSCQACRFMKCLKVGMLKEGVRLD [A19S] | 0.049 ± 0.045 |
| KRLCLVCGDIASGYHYGVTSCEACKAFFKRTIQGNIEYSCPATNECEITKRRRKSCQACRFMKCLKVGMLKEGVRLD [A19T] | -0.085 ± 0.056 |
| KRLCLVCGDIASGYHYGVVSCEACKAFFKRTIQGNIEYSCPATNECEITKRRRKSCQACRFMKCLKVGMLKEGVRLD [A19V] | 0.035 ± 0.038 |
| KRLCLVCGDIASGYHYGVWSCEACKAFFKRTIQGNIEYSCPATNECEITKRRRKSCQACRFMKCLKVGMLKEGVRLD [A19W] | -0.307 ± 0.057 |
| KRLCLVCGDIASGYHYGVYSCEACKAFFKRTIQGNIEYSCPATNECEITKRRRKSCQACRFMKCLKVGMLKEGVRLD [A19Y] | -0.223 ± 0.092 |
| KRLCLVCGDIASGYHYGVAACEACKAFFKRTIQGNIEYSCPATNECEITKRRRKSCQACRFMKCLKVGMLKEGVRLD [S20A] | 0.353 ± 0.038 |
